The values that follow are results of earlier work, collected in paper PMC7460564.

Like-named read-outs stand apart in the source and are kept apart here.

Data set [1] addresses EGFR ECD (Homo sapiens) (UniProt P00533).
The target in the next data set is EGFR (Homo sapiens) (UniProt P00533).
For another data set, the target named is HER2 (Homo sapiens) (UniProt P04626).
Data set [2] concerns the target EGFR ECD (Homo sapiens) (UniProt P00533). This is another data set of the same source.

In general, Kd refers to a measure of binding affinity in units of concentration. Turning to EGF (from UniProt P01133), the Kd with EGFR ECD (Homo sapiens) [1] is 15 nM.
Consider PEPD (prolidase) (from UniProt P12955), for which the Kd in the data set with EGFR (Homo sapiens) was 17.7 nM; in the data set with HER2 (Homo sapiens), 7.3 nM; with EGFR ECD (Homo sapiens) [2], 5300 nM.
